The target in experiment [1] is T1, humTFPI K1K2 (human).
T1 construct: Biotinylated on the AviTag for ELISA; also called Human TFPIα K1K2; humTFPI K1K2-aviHis10
As to the kind of experiment: SPR, antibody ligand, TFPI analyte. In general terms: SPR reads the build-up and loss of mass on a sensor chip optically.

Experiment [2] has as its target T2, murTFPI K1K2 (mouse).
T2 construct: also called Mouse TFPI K1K2; mouse TFPI
T2 chain: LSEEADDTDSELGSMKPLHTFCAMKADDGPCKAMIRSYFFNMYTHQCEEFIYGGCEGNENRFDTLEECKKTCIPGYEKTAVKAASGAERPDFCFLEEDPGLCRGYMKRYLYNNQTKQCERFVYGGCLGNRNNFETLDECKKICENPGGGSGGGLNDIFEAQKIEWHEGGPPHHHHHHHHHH
As to the kind of experiment: SPR, antibody ligand, TFPI analyte.

Experiment [3] addresses T1, humTFPI K1K2. As to the kind of experiment: cell-based or functional assay.
Experiment [4] deals with T1, humTFPI K1K2. As to the kind of experiment: SPR, antibody ligand, TFPI analyte. The source holds these as a separate data set.
Protocol: (§1) The flow cells were activated by injecting a 1:1 mixture of 400 mM 1-Ethyl-3-(3-dimethylaminopropyl) carbodiimide hydrochloride (EDC) and N-hydroxysuccinimide (NHS) for 7 minutes at a flow rate of 10 μl/minute. Anti-human IgG antibody was diluted to 25 μg/ml in 10 mM Sodium Acetate pH 5.0 and injected over all flow cells for 7 minutes at 10 ul/minute. All flow cells were blocked with 1 M Ethanolamine-HCL (ETH) for 7 minutes at 10 μl/minute. Final immobilization level of the capture antibody was approximately 10,000 resonance units (RU). The running buffer for immobilization and kinetics was 10 mM HEPES pH 7.4, 150 mM NaCl, 3 mM EDTA, 0.05% (v/v) Tween-20 (HBS-EP+). […] Flow cell 1 was used as a reference surface. […] At the end of each cycle, the entire anti-IgG surface was regenerated by a 60 second pulse of 3 M MgCl2. Kinetic assays were conducted at 25° C. at a collection rate of 10 Hz on a BIAcore T200 instrument (GE Healthcare). Rate constants and affinities were determined by fitting the data to a 1:1 model in BIAcore T200 Evaluation software version 1.0 (GE).
Experiment [5] has as its target T1, humTFPI K1K2. Briefly: cell-based or functional assay. This is another data set of the same source.
The target of experiment [6] is T3, rabTFPI K1K2 (rabbit, limits assumed).
T3 construct: also called Rabbit TFPI K1K2; rabbit TFPI
T3 chain: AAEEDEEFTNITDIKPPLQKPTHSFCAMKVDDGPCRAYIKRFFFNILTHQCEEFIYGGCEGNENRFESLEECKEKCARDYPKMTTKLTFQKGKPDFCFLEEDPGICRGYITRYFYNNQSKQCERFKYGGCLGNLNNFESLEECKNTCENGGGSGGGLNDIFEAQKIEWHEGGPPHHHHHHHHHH
As to the kind of experiment: SPR, summary table.
Protocol: as §1

Experiment [7] has as its target T4, ratTFPI K1K2 (rat).
T4 chain: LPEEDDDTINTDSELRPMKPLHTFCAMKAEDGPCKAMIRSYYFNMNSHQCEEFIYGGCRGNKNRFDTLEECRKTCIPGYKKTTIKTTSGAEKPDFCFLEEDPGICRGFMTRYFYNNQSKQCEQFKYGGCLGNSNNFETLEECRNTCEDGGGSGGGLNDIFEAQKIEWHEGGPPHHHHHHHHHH
Briefly: SPR, summary table.
Protocol: as §1

Experiment [8] deals with T3, rabTFPI K1K2. Briefly: SPR, antibody ligand, TFPI analyte.
Protocol: as §1
For experiment [9], the target named is T4, ratTFPI K1K2. As to the kind of experiment: SPR, antibody ligand, TFPI analyte.
Protocol: as §1
The target in another experiment is humTFPI K1K2K3 (human). Briefly: cell-based or functional assay.
The target of experiment [10] is T1, humTFPI K1K2. As to the kind of experiment: SPR, summary table.
Protocol: as §1
Experiment [11] addresses T5, cynTFPI K1K2 (cynomolgus monkey).
T5 construct: also called Cynomolgus Monkey TFPI K1K2; cyno TFPI K1K2
As to the kind of experiment: SPR, summary table.
Protocol: as §1

The target of experiment [12] is T2, murTFPI K1K2. As to the kind of experiment: SPR, summary table.
Protocol: as §1
The target of the next experiment is T6, cyno TFPI K2 (cynomolgus monkey, UniProt Q28864 116-177 (rhesus entry), limits assumed).
T6 construct: K2 fragment cut out of cynTFPI K1K2 with human neutrophil elastase, residual AviTag trimmed with AspN; also called Cynomolgus TFPI K2 domain; cyno K2
Briefly: not told.

The target of experiment [13] is T1, humTFPI K1K2. Briefly: SPR, antibody ligand, TFPI analyte. This is another data set of the same source.
Protocol: as §1
For experiment [14], the target named is T5, cynTFPI K1K2. Briefly: SPR, antibody ligand, TFPI analyte.
Protocol: as §1
The target of experiment [15] is T2, murTFPI K1K2. As to the kind of experiment: SPR, antibody ligand, TFPI analyte.
Protocol: as §1
Another experiment deals with T7, cyno K1 (cynomolgus monkey, UniProt Q28864 29-115 (rhesus entry), limits assumed).
T7 construct: also called K1 domain alone
T7 chain: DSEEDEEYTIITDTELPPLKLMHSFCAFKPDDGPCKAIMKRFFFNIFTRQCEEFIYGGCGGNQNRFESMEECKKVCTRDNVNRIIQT
As to the kind of experiment: not told.

The target of experiment [16] is T1, humTFPI K1K2. Briefly: ELISA, biotinylated TFPI on streptavidin plate. In general terms: An ELISA detects its analyte on a solid surface through an enzyme-linked reagent.
Experiment [17] has as its target T3, rabTFPI K1K2. Briefly: ELISA, biotinylated TFPI on streptavidin plate.
For experiment [18], the target named is T1, humTFPI K1K2. Briefly: SPR, antibody ligand, TFPI analyte. This is another data set of the same source.
Protocol: as §1
For experiment [19], the target named is T3, rabTFPI K1K2. Briefly: SPR, antibody ligand, TFPI analyte.
Protocol: as §1

Like-named read-outs stand apart in the source and are kept apart here.

Broadly, the Kd is the constant that tells how readily two partners part at equilibrium. By koff is commonly meant a measure of how fast the partners let go of each other. Lower therefore signals slow dissociation. Broadly, the kon is the second-order rate constant of association. A low value points to slower complex formation. For orientation: EC50 means the concentration that produces a half-maximal response. A higher EC50 goes with weaker potency.

Protocol for cyno TFPI K2: Based on buried surface area (BSA) and percent BSA (% BSA) for residues at the Fab TFPI K1K2 interface, the epitope and paratope of the complex were determined.

B1: TFPI-23 (antibody, human IgG1, lambda)
light: QSVLTQPPSVSGAPGQRVTISCTGSSSNIGAGYDVHWYQQLPGTAPKLLIYGNSNRPSGVPDRFSGSKSGTSASLAITGLQAEDEADYYCQSYDSSLSGSGVFGGGTKLTVLGQPKAAPSVTLFPPSSEELQANKATLVCLISDFYPGAVTVAWKADSSPVKAGVETTTPSKQSNNKYAASSYLSLTPEQWKSHRSYSCQVTHEGSTVEKTVAPTECS
heavy: not shown
notes: Human IgG1-3M from phage display; also called mAb-TFPI-23; clone 23
As for B1, the Kd with humTFPI K1K2 [1] was determined as 9.89 nM; in the experiment with murTFPI K1K2 [2], 1.46 nM; in the experiment with humTFPI K1K2 [4], 9.89 nM. For the same molecule, the “FXa EC50” value with humTFPI K1K2 [3] amounted to 46 nM. Moreover, the “FXa-FVIIa EC50” value with humTFPI K1K2 [3] came out at 32.2 nM.

B2: TFPI-106 (antibody, human IgG1, lambda)
light: QSVLTQPPSVSGAPGQRVTISCTGSSSNIGAGYDVHWYQQLPGTAPKLLIYGNSNRPSGVPDRFSGSKSGTSASLAITGLQAEDEADYYCQSYDSSLSGSGVFGGGTKLTVLGQPKAAPSVTLFPPSSEELQANKATLVCLISDFYPGAVTVAWKADSSPVKAGVETTTPSKQSNNKYAASSYLSLTPEQWKSHRSYSCQVTHEGSTVEKTVAPTECS
heavy: not shown
In the case of B2, the “FVIIa/TF/Xa EC50” value with humTFPI K1K2 [5] was determined as 4.3 nM. Besides, the “Xa Inhibition Assay EC50” value with humTFPI K1K2 [5] stood at 18.1 nM. Also, the Kd with rabTFPI K1K2 [6] was 4.25 nM; with ratTFPI K1K2 [7], 1.57 nM; in the experiment with rabTFPI K1K2 [8] it was 4.25 nM; with ratTFPI K1K2 [9], 1.57 nM. Further, the “EC50, neutralization of FVIIa/TF/FXa inhibition” value with humTFPI K1K2K3 stood at 8.47 nM.

B3: 2A8-200 (antibody, human IgG1, lambda, V domains shown)
VH: QVQLVESGGGLVQPGGSLRLSCAASGFTFRSYGMDWVRQAPGKGLEWVSSIRGSRSSTYYADSVKGRFTISRDNSKNTLYLQMNSLRAEDTAVYYCARLYRYWFDYWGQGTLVTVSS
VL: DIELTQPPSVSVAPGQTARISCSGDNLRNYYAHWYQQKPGQAPVVVIFYDVNRPSGIPERFSGSNSGNTATLTISGTQAEDEADYYCQSWWDGVPVFGGGTKLTVLG
notes: also called Anti-TFPI-2A8-200
Take B3: in the experiment with humTFPI K1K2 [5], the “FVIIa/TF/Xa EC50” value was determined as 4.84 nM. Moreover, the “Xa Inhibition Assay EC50” value with humTFPI K1K2 [5] was 2.42 nM. Also, the equilibrium dissociation constant (Kd) came out at 0.327 nM in the experiment with humTFPI K1K2 [10]; 0.637 nM with cynTFPI K1K2 [11]; 0.145 nM with rabTFPI K1K2 [6]; 0.455 nM with murTFPI K1K2 [12]; 0.327 nM in the experiment with humTFPI K1K2 [13]; 0.637 nM with cynTFPI K1K2 [14]. Further, the Kd with rabTFPI K1K2 [8] amounted to 0.145 nM; with murTFPI K1K2 [15], 0.455 nM. For the same molecule, the binding result in the experiment with cyno TFPI K2 and with cyno K1 was “no binding” each time. Moreover, the dissociation rate constant (koff) was 0.000381 s⁻¹ with humTFPI K1K2 [13], 0.000809 s⁻¹ in the experiment with cynTFPI K1K2 [14], 0.000277 s⁻¹ with rabTFPI K1K2 [8] and 0.00117 s⁻¹ in the experiment with murTFPI K1K2 [15]. Also, the kon with humTFPI K1K2 [13] came to 1.16e+06 M⁻¹ s⁻¹; in the experiment with cynTFPI K1K2 [14], 1.25e+06 M⁻¹ s⁻¹; with rabTFPI K1K2 [8], 1.92e+06 M⁻¹ s⁻¹; with murTFPI K1K2 [15], 2.54e+06 M⁻¹ s⁻¹.

B4: mu-hu 4D8 chimera (antibody, human IgG1, kappa)
light: DIVMTQSHKFMSTSVGDRVSITCKASQDVHTAVAWYQQKPGQSPRLLIYWASTRHTGVPDRFTGCGSGTDYTLTISSVQAEDLALYYCQQHYTTPYTFGGGTKLEMKRTVAAPSVFIFPPSDEQLKSGTASVVCLLNNFYPREAKVQWKVDNALQSGNSQESVTEQDSKDSTYSLSSTLTLSKADYEKHKVYACEVTHQGLSSPVTKSFNRGEC
heavy: EVLLQQSGPELVKPGASVKIPCKASGYTFTDYNLDWVKQSHGKSLEWIGDINPINGATLYNQKFKGKATLTVDQSSSTAYMELRSLTSEDTAVYYCSIYYGDYDAMDYWGQGASVTVSSASTKGPSVFPLAPSSKSTSGGTAALGCLVKDYFPEPVTVSWNSGALTSGVHTFPAVLQSSGLYSLSSVVTVPSSSLGTQTYICNVNHKPSNTKVDKKVEPKSCDKTHTCPPCPAPEAAGAPSVFLFPPKPKDTLMISRTPEVTCVVVDVSHEDPEVKFNWYVDGVEVHNAKTKPREEQYNSTYRVVSVLTVLHQDWLNGKEYKCKVSNKALPAPIEKTISKAKGQPREPQVYTLPPSREEMTKNQVSLTCLVKGFYPSDIAVEWESNGQPENNYKTTPPVLDSDGSFFLYSKLTVDKSRWQQGNVFSCSVMHEALHNHYTQKSLSLSPG
notes: Mouse variable regions on human IgG1 3M and human kappa; also called hu-mu 4D8 chimera; mouse-human chimeric antibody 4D8
For B4, the EC50 with humTFPI K1K2 [16] is 0.0577 nM. For the same molecule, in the experiment with rabTFPI K1K2 [17], a half-maximal effect (EC50) was put at 0.068 nM. In the experiment with humTFPI K1K2 [18], binding was characterised by a dissociation constant (Kd) of 1.19 nM, the koff came to 0.00114 s⁻¹ and the kon was 958000 M⁻¹ s⁻¹. In the experiment with rabTFPI K1K2 [19], this molecule had a Kd of 0.63 nM, an off-rate (koff) of 0.00126 s⁻¹ and a kon of 2.01e+06 M⁻¹ s⁻¹.

Values taken from patent US20210101998A1 (Pfizer, published 2021).
